Consider 2 molecules from US20040063790A1, “Methods for inhibition of angiogenesis” (The Scripps Research Institute, priority 1996, published 2004).

Assay [1] has as its system bFGF-induced angiogenesis. Kind of assay: CAM assay, growth factor-induced angiogenesis, intravenous application. It counts as in vivo, chick. The following applies: 50 μg fusion protein; after 48 and 72 hours. As for the experimental part:
J. Pathol., 79:597 (1975). CAMs were prepared from chick embryos for subsequent induction of angiogenesis and inhibition thereof as described in Examples 4 and 5, respectively. Ten day old chick embryos were obtained from McIntyre Poultry (Lakeside, Calif.) and incubated at 37° C. with 60% humidity. A small hole was made through the shell at the end of the egg directly over the air sac with the use of a small crafts drill (Dremel, Division of Emerson Electric Co. Racine Wis.). A second hole was drilled on the broad side of the egg in a region devoid of embryonic blood vessels determined previously by candling the egg. […] A 1.0 centimeter (cm)×1.0 cm square window was cut through the shell over the dropped CAM with the use of a small model grinding wheel (Dremel). The small window allowed direct access to the underlying CAM.
Angiogenesis was induced by placing a 5 millimeter (mm)×5 mm Whatman filter disk (Whatman Filter paper No.1) saturated with Hanks Balanced Salt Solution (HBSS, GIBCO, Grand Island, N.Y.) or HBSS containing 150 nanograms/milliliter (ng/ml) recombinant basic fibroblast growth factor (bFGF) (Genzyme, Cambridge, Mass.) on the CAM of a 10-day chick embryo in a region devoid of blood vessels and the windows were latter sealed with tape. In other assays, 125 ng/ml bFGF was also effective at inducing blood vessel growth. For assays where inhibition of angiogenesis ws evaluated with intravenous injections of antagonists, angiogenesis was first induced with 1-2 μg/ml bFGF in fibroblast growth medium. Angiogenesis was monitored by photomicroscopy after 72 hours. CAMs were snap frozen, and 6 um cryostat sections were fixed with acetone and stained by immunofluorescence as described in Example 3C with 10 μg/ml of either anti-β1 monoclonal antibody CSAT or LM609.
For CAM preparations in which angiogenesis was induced with 1-2 μg/ml bFGF as previously described, synthetic peptides 69601 (control) and 66203 (SEQ ID NO: 5) were separately intravenously injected into CAM preparations 18 hours after bFGF induction of angiogenesis. The preparations were maintained for an additional 36-40 hours after which time the number of branch points were determined as previously described.
In other assays, peptide 85189 (SEQ ID NO: 15) was evaluated for inhibiting bFGF-induced angiogenesis in the CAM assay over a dosage range of 10 μg/embryo to 300 μg/embryo. The assay was performed as previously described.
In still further assays, peptide 85189 was compared to peptides 69601 and 66203 for anti-angiogenesis activity. The assay was performed as described above with the exception that 50 μg peptide were used.
The effectiveness of the different salt formulations of peptide 85189 was also evaluated in similar bFGF-induced CAM assays. The peptides were used at 100 μg/embryo. […] Untreated CAMs, labeled as “no cytokine” had approximately […] as many branch points as that seen with bFGF treatment, respectively 70 versus 190.
With the above-described protocol, the effect of MMP-2 fusion proteins, CTMMP-2(2-4), also referred to as CTMMP-2(445-467) and CTMMP-2(10-1), also referred to as CTMMP-2(274-637) was also evaluated. The assay was performed as previously described with the exception that 50 μg of fusion protein was administered to the bFGF-treated embryos. The effect of fusion protein treatment was assessed at 24 hours, 48 hours and 72 hours.
The 10 day old CAM preparation was used as previously described in Example 5A. Twenty-four hours after bFGF-induced angiogenesis was initiated, the organic peptidomimetics referred to as compounds 16 (81218), 17 (87292) and 18 (87293) were separately intravenously injected into the CAM preparation in a volume of 100 μl at a concentration of 1 mg/ml (100 μg/embryo) in 20% tetraglycol-PBS at pH 7.0. In parallel assays, compounds 7 (96112), 9 (99799), 10 (96229), 12 (112854) and 14 (96113) were similarly evaluated. […]

In assay [2] the test system is CS-1 tumor (β3-negative). Kind of assay: CS-1 tumor growth in CAM. It counts as in vivo, chick. The following applies: 50 μg intravenously after 24 hours of tumor growth; mass after 6 days; versus CTMMP-2(10-1) or PBS. The protocol:
A CS-1 tumor (β3-negative) was prepared in a CAM as described above. After 24 hours of tumor growth, a composition of MMP-2 fragment, designated CTMMP-2(2-4) and prepared as described in Example 2A, was administered intraveneously at 50 μg fragment in 100 μl of PBS. After 6 days, the tumor was evaluated for mass. Tumors treated with CTMMP-2(2-4) were reduced in growth rate by about 50% when compared to the growth rate of control tumors treated with CTMMP-2(10-1) or with PBS control.

The subject of assay [3] is αvβ3-expressing CS-1 cells. Kind of assay: Inhibition of cell attachment assay. Type of assay: cell-based, hamster. As for the experimental part:
As one means to determine integrin receptor specificity of the antagonists of this invention, inhibition of cell attachment assays were performed as described below.
Briefly, CS-1 hamster melanoma cells lacking expression of αvβ3 and αvβ5 were first transfected with an plasmid for expressing the […] as previously described by Filardo et al., J. Cell Biol., 130:441-450 (1995). Specificity of potential αvβ3 antagonists was determined by the ability to block the binding of αvβ3-expressing CS-1 cells to VN or laminin coated plates. As an example of a typical assay, the wells were first coated with 10 μg/ml substrate overnight. After rinsing and blocking with 1% heat-denatured BSA in PBS at room temperature for 30 minutes, peptide 85189 (SEQ ID NO: 15) over a concentration range of 0.0001 μM to 100 μM, was separately mixed with CS-1 cells for applying to wells with a cell number of 50, 000 cells/well. After a 10-15 minute incubation at 37° C., the solution containing the cells and peptides was discarded. The number of attached cells was then determined following staining with 1% crystal violet. Cell associated crystal violet was eluted by the addition of 100 microliters (μl) of 10% acetic acid. Cell adhesion was quantified by measuring the optical density of the eluted crystal violet at a wave length of 600 nm.

For assay [4], the target named is T1, αvβ3 (Homo sapiens, UniProt P05106+P06756).
T1 construct: selected purified integrins were separately immobilized in Titertek microtiter wells
Kind of assay: Solid phase receptor binding assay (iodinated MMP-2, labeled fusion proteins). The protocol: In addition, the ability of peptides to inhibit the binding of either MMP-2 or VN to immobilized αvβ3 was assessed with peptides 69601 (SEQ ID NO: 6) and 66203 (SEQ ID NO: 5).
Specificity of receptor interaction with MMP-2-derived antagonists was confirmed with binding and inhibition of binding solid phase assays. […] In addition, the binding of labeled GST2-4 was competed by unlabeled GST2-4.

The target of assay [5] is T2, αIIbβ3 (Homo sapiens, UniProt P05106+P08514).
T2 construct: selected purified integrins were separately immobilized in Titertek microtiter wells
The assay is described as above.

T1 sequence (P06756 31-889 limits assumed): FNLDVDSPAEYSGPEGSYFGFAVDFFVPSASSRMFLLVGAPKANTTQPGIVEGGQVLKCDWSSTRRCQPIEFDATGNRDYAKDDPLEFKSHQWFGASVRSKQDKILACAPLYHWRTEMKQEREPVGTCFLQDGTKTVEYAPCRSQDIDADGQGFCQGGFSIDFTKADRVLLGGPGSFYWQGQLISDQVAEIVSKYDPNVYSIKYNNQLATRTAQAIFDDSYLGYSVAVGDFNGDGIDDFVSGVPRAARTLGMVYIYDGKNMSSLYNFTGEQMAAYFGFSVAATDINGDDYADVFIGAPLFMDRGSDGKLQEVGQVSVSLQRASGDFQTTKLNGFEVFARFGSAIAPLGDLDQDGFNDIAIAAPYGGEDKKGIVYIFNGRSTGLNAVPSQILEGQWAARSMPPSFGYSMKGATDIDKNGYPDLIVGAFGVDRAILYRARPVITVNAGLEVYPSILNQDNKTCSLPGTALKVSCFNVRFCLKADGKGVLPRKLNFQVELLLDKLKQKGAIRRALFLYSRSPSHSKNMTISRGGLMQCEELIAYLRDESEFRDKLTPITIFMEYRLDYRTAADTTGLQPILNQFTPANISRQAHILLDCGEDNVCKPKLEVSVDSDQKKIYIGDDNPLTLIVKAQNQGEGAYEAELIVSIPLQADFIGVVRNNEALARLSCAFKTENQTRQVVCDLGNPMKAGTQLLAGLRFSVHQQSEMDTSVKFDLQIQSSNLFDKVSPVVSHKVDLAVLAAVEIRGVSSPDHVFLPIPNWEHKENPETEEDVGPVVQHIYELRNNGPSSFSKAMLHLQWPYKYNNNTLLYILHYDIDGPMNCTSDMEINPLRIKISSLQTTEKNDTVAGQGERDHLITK
T1 sequence (P06756 891-1048 partner limits assumed): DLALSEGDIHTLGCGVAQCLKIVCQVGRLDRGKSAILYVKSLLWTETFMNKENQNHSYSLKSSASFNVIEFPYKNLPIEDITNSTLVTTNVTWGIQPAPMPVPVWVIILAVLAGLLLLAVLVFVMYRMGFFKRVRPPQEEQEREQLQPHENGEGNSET
T1 sequence (P05106 27-788): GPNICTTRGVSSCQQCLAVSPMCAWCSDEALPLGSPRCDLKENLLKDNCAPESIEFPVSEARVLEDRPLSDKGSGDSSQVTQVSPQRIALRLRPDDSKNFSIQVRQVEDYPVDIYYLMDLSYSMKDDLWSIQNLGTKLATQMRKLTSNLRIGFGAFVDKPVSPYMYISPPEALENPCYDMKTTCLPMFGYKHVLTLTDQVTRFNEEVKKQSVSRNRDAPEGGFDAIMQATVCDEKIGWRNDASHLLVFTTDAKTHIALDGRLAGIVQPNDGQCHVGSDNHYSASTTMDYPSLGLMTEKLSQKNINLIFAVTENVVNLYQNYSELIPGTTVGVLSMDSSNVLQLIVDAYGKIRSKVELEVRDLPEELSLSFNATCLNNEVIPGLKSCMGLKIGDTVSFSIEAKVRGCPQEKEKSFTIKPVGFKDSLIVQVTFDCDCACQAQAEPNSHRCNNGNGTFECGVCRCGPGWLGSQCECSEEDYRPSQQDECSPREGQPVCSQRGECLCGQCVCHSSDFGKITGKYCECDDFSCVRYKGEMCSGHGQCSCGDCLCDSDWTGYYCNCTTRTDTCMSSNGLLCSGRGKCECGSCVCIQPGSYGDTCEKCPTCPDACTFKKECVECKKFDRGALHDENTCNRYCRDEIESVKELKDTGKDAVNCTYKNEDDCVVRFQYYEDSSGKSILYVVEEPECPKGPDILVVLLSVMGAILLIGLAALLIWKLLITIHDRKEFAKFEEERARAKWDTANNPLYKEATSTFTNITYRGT

B1: CTMMP-2(2-4): GST fusion protein of chicken MMP-2 C-terminal residues 445-637 (protein)
chain: LCKHDIVFDGVAQIRGEIFFFKDRFMWRTVNPRGKPTGPLLVATFWPDLPEKIDAVYESPQDEKAVFFAGNEYWVYTASNLDRGYPKKLTSLGLPPDVQRIDAAFNWGRNKKTYIFSGDRYWKYNEEKKKMELATPKFIADSWNGVPDNLDAVLGLTDSGYTYFFKDQYYLQMEDKSLKIVKIGKISSDWLGC
modifications: left off: a dimerising Fc or GST
Take B1: the “inhibition of bFGF-induced angiogenesis by fusion protein” value in assay [1] is recorded as “almost completely inhibited”. Besides, in assay [2], the “reduction in tumor growth rate” value was “about 50%”. Also, in assay [3], the “inhibition of β3-expressing CS-1 cell adhesion to laminin” value was “but not laminin” and the “inhibition of β3-expressing CS-1 cell adhesion to vitronectin” value was “inhibited”. Also, the “competition of labeled GST2-4 binding by unlabeled protein” value in assay [4] is on record as “competed”. Moreover, the “inhibition of binding of iodinated MMP-2 to αvβ3” value in assay [4] (FIG. 8) was “inhibited the binding of iodinated MMP-2”. For the same molecule, the “binding of 125I-labeled fusion protein to αvβ3” value in assay [4] (FIG. 9) is listed as “bound”.

B2: MMP-2: matrix metalloproteinase-2, intact protein (protein)
chain: APSPIIKFPGDSTPKTDKELAVQYLNKYYGCPKDNCNLFVLKDTLKKMQKFFGLPETGDLDQNTIETMKKPRCGNPDVANYNFFPRKPKWEKNHITYRIIGYTPDLDPETVDDAFARAFKVWSDVTPLRFNRINDGEADIMINFGRWEHGDGYPFDGKDGLLAHAFAPGPGIGGDSHFDDDELWTLGEGQVVRVKYGNADGEYCKFPFWFNGKEYNSCTDAGRNDGFLWCSTTKDFDADGKYGFCPHESLFTMGGNGDGQPCKFPFKFQGQSYDQCTTEGRTDGYRWCGTTEDYDRDKKYGFCPETAMSTVGGNSEGAPCVFPFIFLGNKYDSCTSAGRNDGKLWCASTSSYDDDRKWGFCPDQGYSLFLVAAHEFGHAMGLEHSEDPGALMAPIYTYTKNFRLSQDDIKGIQELYEVSPDVEPGPGPGPGPGPRPTLGPVTPELCKHDIVFDGVAQIRGEIFFFKDRFMWRTVNPRGKPTGPLLVATFWPDLPEKIDAVYESPQDEKAVFFAGNEYWVYTASNLDRGYPKKLTSLGLPPDVQRIDAAFNWGRNKKTYIFSGDRYWKYNEEKKKMELATPKFIADSWNGVPDNLDAVLGLTDSGYTYFFKDQYYLQMEDKSLKIVKIGKISSDWLGC
B2: the “bound iodinated MMP-2 on immobilized αIIbβ3” value in assay [5] is “approximately 10 CPM”. Further, in assay [3], the “inhibition of β3-expressing CS-1 cell adhesion to laminin” value is “but not laminin” and the “inhibition of β3-expressing CS-1 cell adhesion to vitronectin” value is “inhibited”. The “bound iodinated MMP-2 on immobilized αvβ3” value in assay [4] was found to be 300 cpm.
